# T1: Sfmbt 4MBT wild type (Drosophila melanogaster, UniProt Q9VK33 531-980)
# T1 sequence: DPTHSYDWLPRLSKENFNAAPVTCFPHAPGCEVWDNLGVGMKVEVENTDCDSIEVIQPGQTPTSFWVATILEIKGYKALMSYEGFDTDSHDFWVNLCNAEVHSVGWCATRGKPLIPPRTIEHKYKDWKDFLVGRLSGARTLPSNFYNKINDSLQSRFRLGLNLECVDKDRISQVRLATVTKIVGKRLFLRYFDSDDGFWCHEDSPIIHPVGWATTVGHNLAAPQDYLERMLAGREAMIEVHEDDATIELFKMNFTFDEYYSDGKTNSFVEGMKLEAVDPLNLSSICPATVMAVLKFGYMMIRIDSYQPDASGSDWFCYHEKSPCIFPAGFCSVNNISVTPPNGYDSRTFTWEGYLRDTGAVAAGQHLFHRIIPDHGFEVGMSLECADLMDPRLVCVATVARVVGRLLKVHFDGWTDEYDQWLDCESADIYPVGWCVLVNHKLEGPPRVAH
# B1: Pho DNA-binding site probe (dsDNA)
# DNA 1: CTCCGTCGCCATAACTGTCG
# DNA 2: CGACAGTTATGGCGACGGAG
# Tests used:
# Pho full-length = Pho full-length (Drosophila melanogaster, UniProt Q8ST83 1-520); assay: EMSA
# Chain of Pho full-length (Q8ST83 whole entry): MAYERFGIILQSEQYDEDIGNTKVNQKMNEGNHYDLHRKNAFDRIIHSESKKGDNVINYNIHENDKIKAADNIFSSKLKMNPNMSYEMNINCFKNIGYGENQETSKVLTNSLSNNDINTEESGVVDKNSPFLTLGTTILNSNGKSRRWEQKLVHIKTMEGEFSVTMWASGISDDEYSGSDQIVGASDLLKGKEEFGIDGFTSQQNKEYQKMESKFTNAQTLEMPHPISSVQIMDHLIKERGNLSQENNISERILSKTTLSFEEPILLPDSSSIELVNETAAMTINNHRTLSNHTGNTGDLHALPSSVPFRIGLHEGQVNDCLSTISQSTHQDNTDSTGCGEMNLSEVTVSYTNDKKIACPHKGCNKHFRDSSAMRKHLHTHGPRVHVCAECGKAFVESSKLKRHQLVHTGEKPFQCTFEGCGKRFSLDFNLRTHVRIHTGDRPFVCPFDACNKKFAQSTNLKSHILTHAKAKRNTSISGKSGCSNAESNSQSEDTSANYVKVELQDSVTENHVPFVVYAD
# Sfmbt 4MBT wild type = biological target: T1, Sfmbt 4MBT wild type; assay: EMSA
# [1] = biological target: Pho full-length;Sfmbt 4MBT wild type (Drosophila melanogaster;Drosophila …, UniProt Q8ST83;Q9VK33 1-520;531-980, |); assay: EMSA supershift
# Chain of Pho full-length;Sfmbt 4MBT wild type (Q8ST83 whole entry, one chain of several): as the sequence (Q8ST83 whole entry) above
binder,measurement,setting,value
B1,binding result,Pho full-length,binds
same,binding result,Sfmbt 4MBT wild type,no binding
same,binding result,[1],binds

# — paper PMC3828522
